Assay results reported in doi:10.1101/2023.11.28.569054 (bioRxiv, 2023).

T1: NCLN of BOS (tNOMO) (human, UniProt Q969V3 43-563)
T1 sequence: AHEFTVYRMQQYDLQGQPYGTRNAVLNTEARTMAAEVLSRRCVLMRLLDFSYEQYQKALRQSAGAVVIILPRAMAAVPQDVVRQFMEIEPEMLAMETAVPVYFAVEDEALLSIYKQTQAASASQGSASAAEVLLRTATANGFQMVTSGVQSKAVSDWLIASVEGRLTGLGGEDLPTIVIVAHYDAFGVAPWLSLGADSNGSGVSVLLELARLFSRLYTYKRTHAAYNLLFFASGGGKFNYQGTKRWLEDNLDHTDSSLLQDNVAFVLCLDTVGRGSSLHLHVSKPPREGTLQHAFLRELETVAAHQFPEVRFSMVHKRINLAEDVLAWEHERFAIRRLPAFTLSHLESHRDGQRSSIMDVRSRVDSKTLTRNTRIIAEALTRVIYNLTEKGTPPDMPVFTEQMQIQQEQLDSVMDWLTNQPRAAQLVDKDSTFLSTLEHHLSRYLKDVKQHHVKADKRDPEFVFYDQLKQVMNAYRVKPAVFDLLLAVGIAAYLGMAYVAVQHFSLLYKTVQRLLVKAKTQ

T2: TMEM147 of TMEM147-5aa-TEV-GFP-40aa(ALFA)-EMC2 (human, UniProt Q9BVK8 1-224)
T2 sequence: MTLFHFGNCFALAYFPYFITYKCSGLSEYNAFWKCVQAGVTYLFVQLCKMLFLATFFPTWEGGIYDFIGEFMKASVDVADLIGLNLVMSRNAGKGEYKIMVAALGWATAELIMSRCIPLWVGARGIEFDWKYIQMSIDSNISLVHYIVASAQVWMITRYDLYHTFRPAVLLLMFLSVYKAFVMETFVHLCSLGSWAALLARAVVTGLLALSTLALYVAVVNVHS

T3: EMC1 (human (endogenous in Expi293), UniProt Q8N766 23-993)
T3 sequence: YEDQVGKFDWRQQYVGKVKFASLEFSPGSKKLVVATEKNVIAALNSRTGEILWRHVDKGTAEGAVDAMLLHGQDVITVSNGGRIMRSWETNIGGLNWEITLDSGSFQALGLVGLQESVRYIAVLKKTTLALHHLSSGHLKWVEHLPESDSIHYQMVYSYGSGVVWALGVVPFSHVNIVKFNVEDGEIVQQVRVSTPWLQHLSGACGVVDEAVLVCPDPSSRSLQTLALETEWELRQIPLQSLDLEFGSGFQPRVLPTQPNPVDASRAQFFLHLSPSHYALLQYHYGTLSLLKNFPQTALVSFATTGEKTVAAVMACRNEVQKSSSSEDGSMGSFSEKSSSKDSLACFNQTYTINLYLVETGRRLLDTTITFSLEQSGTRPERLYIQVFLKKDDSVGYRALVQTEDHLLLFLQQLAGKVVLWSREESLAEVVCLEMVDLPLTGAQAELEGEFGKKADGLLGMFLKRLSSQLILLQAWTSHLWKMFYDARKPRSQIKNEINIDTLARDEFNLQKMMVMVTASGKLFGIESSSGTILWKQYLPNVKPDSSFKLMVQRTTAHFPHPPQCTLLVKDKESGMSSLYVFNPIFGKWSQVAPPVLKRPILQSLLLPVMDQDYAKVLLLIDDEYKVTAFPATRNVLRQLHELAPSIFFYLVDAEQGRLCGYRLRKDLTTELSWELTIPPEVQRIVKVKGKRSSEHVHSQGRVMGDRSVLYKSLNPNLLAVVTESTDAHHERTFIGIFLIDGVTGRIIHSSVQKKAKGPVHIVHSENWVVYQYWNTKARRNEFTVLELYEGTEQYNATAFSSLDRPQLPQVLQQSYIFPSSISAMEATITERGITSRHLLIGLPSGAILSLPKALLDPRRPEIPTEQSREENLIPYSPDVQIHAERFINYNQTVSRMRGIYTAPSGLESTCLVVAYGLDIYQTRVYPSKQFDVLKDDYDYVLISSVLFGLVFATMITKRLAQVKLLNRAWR

B1: TMEM147-GFP (natural protein)
chain: T2 sequence
B2: TMEM147 (from TMEM147-TEV-GFP, tag removed) (natural protein)
chain: T2 sequence
B3: EMC5 (natural protein)
chain: MAPSLWKGLVGIGLFALAHAAFSAAQHRSYMRLTEKEDESLPIDIVLQTLLAFAVTCYGIVHIAGEFKDMDATSELKNKTFDTLRNHPSFYVFNHRGRVLFRPSDTANSSNQDALSSNTSLKLRKLESLRR
B4: NCLN (natural protein)
chain: T1 sequence

How the values were obtained:
Test in all cases: cryo-EM structure
NCLN = molecular target: B4
NCLN of BOS (tNOMO) = molecular target: T1, NCLN of BOS (tNOMO)
[1] = molecular target: T2, TMEM147 of …
EMC1 = molecular target: T3, EMC1

Binder: B1
binding result (NCLN): binds

Binder: B2
binding result (NCLN of BOS (tNOMO)): binds

Binder: B3
binding result [1]: binds

Binder: B4
binding result (EMC1): binds
